Source: patent US20250136910A1, “DEVICES FOR USE AS BLOOD BRAIN BARRIER MODELS” (Merck Sharp & Dohme LLC, priority 2023, published 2025)

What was measured:
GFP HUVECs = assay: Ang-1 addition to perfusion media, channels endothelialized with GFP HUVECs; type: cell-based, human; conditions: complete Vasculife (with VEGF) 3 days, then Ang-1 added 15 ng mL^−1; perfused at 5 μL min^−1
Method: FIGS. 25a-25c show immunostained VE-Cadherin junctions for channels endothelialized with GFP HUVECs (30M mL^−1) after being exposed to different media compositions. […] This gel was sustained for a total of twelve days while being perfused at 5 μL min^−1.
For the HUVECs, a mature monolayer was able to be obtained through modulation of the media composition and utilizing biomolecules that play an important role in endothelial cell function. In addition to the removal of VEGF, another avenue explored was the addition of Angiopoetin-1 (Ang-1). Angiopoetin-1 is a glycoprotein that is a known ligand for the endothelial cell-specific receptor tyrosine kinase, Tie-2 receptor. In vascular development during embryogenesis, VEGF and Ang-1 play essential and complementary roles. Vascular endothelial growth factor (VEGF) is responsible for the initial formation of the vascular plexus, while Angiopoetin-1 (Ang-1) is responsible for the subsequent remodeling of the vasculature into a network of mature vessels. […] The incorporation of this glycoprotein was first assessed using hydrogels endothelialized with GFP HUVECs. Three different media strategies were employed to assess the effect of adding Ang-1 to the perfusion media. […]

GFP HBMECs = assay: Ang-1 addition to perfusion media, serpentine gel endothelialized with GFP HBMECs; type: cell-based, human; conditions: complete Vasculife 3 days, then Ang-1 at 15 ng/ml for 3 days; perfused at 5 μL min^−1; day 6
Method: GFP HBMECs was seeded in the vascular channel at 30M mL^−1and perfused at 5 μL min^−1for duration of the study. […] Overlay and individual channels of GFP HBMEC and VE-Cadherin shown.
Once this was confirmed using HUVECs, the incorporation of Ang-1 to the perfusion media was tested on a gel endothelialized with GFP HBMECs. The same strategy was employed where the gel was perfused for 3 days with complete Vasculife media, then switched to a Vasculife media where Ang-1 was added in at 15 ng/ml for the remaining three days of perfusion culture. Images of cell morphology in the serpentine on days 3, 6, and after fixing and immunostaining for VE-Cadherin are seen in FIG. 26a. […] A magnified portion of the center channel is shown in FIG. 26b, which highlights the morphology of the GFP HBMECs and VE-Cadherin and includes nuclei in the overlay.

B1: Ang-1: glycoprotein that is a known ligand for the endothelial cell-specific receptor tyrosine kinase, Tie-2 receptor (protein, UniProt Q15389 16-498, looked up)
Angiopoietin-1: HIGCSNQRRSPENSGRRYNRIQHGQCAYTFILPEHDGNCRESTTDQYNTNALQRDAPHVEPDFSSQKLQHLEHVMENYTQWLQKLENYIVENMKSEMAQIQQNAVQNHTATMLEIGTSLLSQTAEQTRKLTDVETQVLNQTSRLEIQLLENSLSTYKLEKQLLQQTNEILKIHEKNSLLEHKILEMEGKHKEELDTLKEEKENLQGLVTRQTYIIQELEKQLNRATTNNSVLQKQQLELMDTVHNLVNLCTKEGVLLKGGKREEEKPFRDCADVYQAGFNKSGIYTIYINNMPEPKKVFCNMDVNGGGWTVIQHREDGSLDFQRGWKEYKMGFGNPSGEYWLGNEFIFAITSQRQYMLRIELMDWEGNRAYSQYDRFHIGNEKQNYRLYLKGHTGTAGKQSSLILHGADFSTKDADNDNCMCKCALMLTGGWWFDACGPSNLNGMFYTAGQNHGKLNGIKWHYFKGPSYSLRSTTMMIRPLDF
endothelial monolayer retention in perfusion culture (GFP HUVECs): retained an endothelial monolayer for twelve days of perfusion culture
endothelium confluence by VE-Cadherin immunostaining (GFP HBMECs): a confluent endothelium of brain microvascular endothelial cells lining the serpentine channel has been achieved
